From patent US20220056137A1 (GIGAGEN, published 2022)
Positions count from the first letter of the chain named.

B1: antibody A2 (antibody, V domains shown)
VH: EVQLVESGGGLVQPGGSLRLSCAASGFTFSRYDMSWVRQAPGKGLEWVSTISGSGGSTYYADSVKGRFTISRDNSKTTLYLQMISLRAEDTAVYYCAKAGFTMIVVAFDYWGQGTLVTVSS
VL: DIQMTQSPSSLSASVGDRVTITCRASQGISNYLAWFQQKPGKAPKSLIYAASSLQSGVPSKFSGSGSGTDFTLTISSLQPEDFATYYCQQYNSYPYTFGQGTKLEIK
notes: Tested as full-length mAb made in CHO cells; also called L2H2
B2: antibody A22 (antibody, V domains shown)
VH: QVQLVQSGAEVKKPGASVKVSCKASGYTFTSYGISWVRQAPGQGLEWMGWISAYNGNTNYAQKLQGRVTMTTDTSTSTAYMELRSLRSDDTAVYYCARGFYYGSWYFDYWGQGTLVTVSS
VL: B1 VL with N31S, Y32W, F36Y, G41E, K61R, Y96P, F98V, Q100G, L104V
notes: Tested as full-length mAb made in CHO cells; also called L22H22
B3: antibody A11 (antibody, V domains shown)
VH: QVQLVESGGGVVQPGRSLRLSCAASGFTFSSYGIHWVRQAPGKGLEWVAVIWSDGSNKFYADSVKGRFTISRDNSKNTLFLQMSSLRAEDTAVYYCARDIAAAIDYWGQGTLVTVSS
VL: AIQMTQSPSSLSASVGDRVTITCRASQGIRNDLGWYQQKPGKAPKLLIYAASSLQSGVPSRFSGSGSGTDFTLTISSLQPEDFATYYCLQDYNYPYTFGQGTKLEIK
notes: Tested as full-length mAb made in CHO cells; also called L11H11
B4: antibody A8 (antibody, V domains shown)
VH: QVQLVQSGAEVKKPGASVKVSCKASGYTFTSYGISWVRQAPGQGLEWMGWISAYNGSTNYAQKLQGRVTMTTDTSTSTAYMELRSLRSDDTAVFYCARDDRIAVADYYYYFGMDVWGQGTTVTVSS
VL: B3 VL with A1D, L46R, D70E, D91H, Y92N, N93S
notes: Tested as full-length mAb made in CHO cells; also called L8H8
B5: antibody A3 (antibody, V domains shown)
VL: B3 VL with G28D, K39Q, Y96P, L104V
V domain: QVQLVESGGGVVQPGRSLRLSCAASGFTFSNYGMHWVRQAPGKGLEWVAVIWFDGNTKYYTDSVKGRFTISRDNSKNTLYLQMNSLRAEDTAVYYCARDTTMVPMDVWGQGTTATVSS
notes: Tested as full-length mAb made in CHO cells; also called L3H3
B6: antibody A4 (antibody, V domains shown)
VH: B5 V domain with T100I, A114V
VL: B3 VL with G28D, K39Q, Y96P, L104V
notes: Tested as full-length mAb made in CHO cells; also called L4H4
B7: antibody A1 (antibody, V domains shown)
VH: QVQLVQSGAEVKKPGASVKVSCKASGFTFTSYDINWVRQATGQGLEWMGWMHPNSGITGYAQKFQGRVTMTRNTSISTAYMELSSLSSEDTAVYFCARYYYVSGSYDYWGQGTLVTVSS
VL: EIVMTQSPATLSLSPGERATLSCWASQSVSSSYLSWYQQKPGQAPRLLIYGASTRATGIPARFSGSGSGTDFTLTISSLQPEDFAVYYCQQDYNLPYTFGQGTKLEIK
notes: Tested as full-length mAb made in CHO cells; also called L1H1
B8: antibody A5 (antibody, V domains shown)
VH: QVQLVESGGGVVQPGRSLRLSCAASGFAFSSYGMHWVRQAPGKGLEWVALIWFDGNNKFYADSVKGRFTISRDNSKNTLYLQMNSLRAEDTAVYYCARDTTAASFDYWGQGTLVTVSS
VL: B7 VL with W24R, S32T, Y50F, Y97P, Q101P, L105V, E106D
notes: Tested as full-length mAb made in CHO cells; also called L5H5
B9: antibody A25 (antibody, V domains shown)
VH: B7 VH with N54K, S85N, Y100N
VL: B7 VL with N94Y
notes: Derived from a mutagenesis screen of A1; Tested as full-length antibody; also called L25H25
B10: antibody A13 (antibody, V domains shown)
VH: QVQLQESGPGLVKPSETLSLTCTVSGGSISSYYWSWIRQPPGKGLEWIGYIHYSGSTKYNPSLKSRVTISLDTSKNQFSLKLSSVTAADTAVYYCARDRGIGAFDIWGQGTMVTVSS
VL: EIVMTQSPATLSLSPGERATLSCRASQSVSSSYLSWYQQKPGQAPRLLIYGASTRATGIPARFSGSGSGTDFTLTISSLQPEDFAVYYCQQDYNLITFGQGTRLEIK
notes: Tested as full-length mAb made in CHO cells; also called L13H13
B11: antibody A7 (antibody, V domains shown)
VH: QVQLQESGPGLVKPSETLSLTCTVSGGSISSYYWSWIRQPPGKGLEWIGYIFYSGSTNYNPSLKSRVTISVDTSKNQFSLKLSSVTAADTAVYFCARDNWHDGGVDYWGQGTLVTVSS
VL: B10 VL with A9T, I96R, R103K, L104V
notes: Tested as full-length mAb made in CHO cells; also called L7H7

Legend:
[1] = biological target: T1, PD-L1 expressed on CHO cells (human, UniProt Q9NZQ7 19-290); assay: cell-based or functional assay
T1 sequence (Q9NZQ7 19-290 limits assumed): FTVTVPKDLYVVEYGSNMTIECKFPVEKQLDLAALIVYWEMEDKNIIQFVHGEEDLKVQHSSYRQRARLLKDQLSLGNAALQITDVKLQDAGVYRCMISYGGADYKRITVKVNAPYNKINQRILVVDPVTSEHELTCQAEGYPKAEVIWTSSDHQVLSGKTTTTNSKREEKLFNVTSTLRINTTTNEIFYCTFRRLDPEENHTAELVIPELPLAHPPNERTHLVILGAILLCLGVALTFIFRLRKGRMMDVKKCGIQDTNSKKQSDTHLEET

[2] = biological target: T2, cyno PD-L1 (cyno); assay: BLI (Octet), antibody on AHC biosensor, cyno PD-L1 as analyte
T2 construct: Soluble analyte in BLI
Protocol: (§1) For BLI, antibodies were loaded onto an Anti-Human IgG Fc (AHC) biosensor using the Octet Red96 system (ForteBio). Loaded biosensors were dipped into antigen dilutions beginning at 300 nM, with 6 serial dilutions at 1:3. Kinetic analysis was performed using a 1:1 binding model and global fitting.

[3] = biological target: T3, human PD-L1 protein (soluble) (human, UniProt Q9NZQ7 19-239); assay: SPR, mAb captured on anti-human IgG Fc, PD-L1 as analyte;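 as to koff: array SPR with mAb supernatants captured at several densities, PD-L1 injected for 5 min then 15 min dissociation, non-regenerative kinetic series, double-referenced against interspot surface and blank injection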;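 as to kon: array SPR with mAb supernatants captured at several densities, PD-L1 injected for 5 min then 15 min dissociation, non-regenerative kinetic series, double-referenced against interspot surface and blank injection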
T3 construct: also called PD-L1 (R&D Systems); His-tagged PD-L1 protein
T3 sequence (Q9NZQ7 19-239 limits assumed): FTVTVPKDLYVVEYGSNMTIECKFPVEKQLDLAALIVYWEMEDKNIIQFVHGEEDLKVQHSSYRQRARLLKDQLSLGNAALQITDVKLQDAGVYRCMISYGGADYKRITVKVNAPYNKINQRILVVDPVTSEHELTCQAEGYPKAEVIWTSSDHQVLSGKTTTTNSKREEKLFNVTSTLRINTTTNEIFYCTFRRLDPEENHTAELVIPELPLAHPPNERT
Protocol: (§2) The surface was then deactivated with 1 M ethanolamine pH 8.5 (Carterra Inc.). Running buffer used for the lawn immobilization was HBS-EPC (10 mM HEPES, 150 mM NaCl, 3 mM EDTA, 0.05% Tween 20, pH 7.4; Teknova).
(§3) The sensor chip was then transferred to a continuous flow microspotter (CFM; Carterra Inc.) for array capturing. The mAb supernatants were diluted 50-fold (3-10 mg/mL final concentration) into HBS-EPC with 1 mg/mL BSA. The samples were each captured twice with 15-minute and 4-minute capture steps on the first and second prints, respectively, to create multiple densities, using a 65 mL/min flow rate. The running buffer in the CFM was also HBS-EPC.
(§4) Next, the sensor chip was loaded onto an SPR reader (MX-96 system; Ibis Technologies) for the kinetic analysis. […] PD-L1 injections were 5 minutes with a 15-minute dissociation at 8 mL/second in a non-regenerative kinetic series. An injection of the goat anti-Human IgG Fc capture antibody at 75 mg/mL was injected at the end of the series to verify the capture level of each mAb. Binding data was double referenced by subtracting an interspot surface and a blank injection and analyzed for ka (on-rate), kd (off-rate), and KD (affinity) using the Kinetic Interaction Tool software (Carterra Inc.).

[4] = biological target: T4, rhPD-L1-Fc (human, UniProt Q9NZQ7 19-239, limits assumed); assay: competition ELISA: plate-bound rhPD-L1-Fc, antibody titrated, competitor rhCD80-His detected
T4 construct: Recombinant human PD-L1-Fc coated on ELISA plates; not shown: Fc part
T4 sequence (Q9NZQ7 19-239 limits assumed): as above

[5] = biological target: T3, human PD-L1 protein (soluble); assay: SPR, mAb captured on anti-human IgG Fc, PD-L1 as analyte; remark: listed apart in the source;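 as to koff: array SPR with mAb supernatants captured at several densities, PD-L1 injected for 5 min then 15 min dissociation, non-regenerative kinetic series, double-referenced against interspot surface and blank injection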;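 as to kon: array SPR with mAb supernatants captured at several densities, PD-L1 injected for 5 min then 15 min dissociation, non-regenerative kinetic series, double-referenced against interspot surface and blank injection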
Protocol: as §2, §3, §4

[6] = biological target: T1, PD-L1 expressed on CHO cells; assay: flow cytometry on PD-L1 expressing Flp-In CHO cells
Protocol: For cell surface binding studies, PD-L1 expressing Flp-In CHO (Thermo Fisher Scientific) cells were generated and mixed at a 50:50 ratio. One million cells were stained with 1 μg of the disclosed anti-PD-L1 recombinant antibodies in 200 μl of MACS Buffer (DPBS with 0.5% bovine serum albumin and 2 mM EDTA) for 30 minutes at 4 C. Cells were then co-stained with anti-human irrelevant target-APC and anti-human IgG Fc-PE antibodies for 30 minutes at 4 C. An anti-human PD-L1 antibody was used as a control for these mixing experiments and cell viability was assessed with DAPI. Flow cytometry analysis was conducted on a BD Influx at the Stanford Shared FACS Facility and data was analyzed using FlowJo.

[7] = biological target: T3, human PD-L1 protein (soluble); assay: BLI (Octet), antibody on AHC biosensor, PD-L1 as analyte
Protocol: as §1

[8] = biological target: T3, human PD-L1 protein (soluble); assay: as above; remark: listed apart in the source
Protocol: as §1

Binder	Promega assay antagonist (EC50, ug/mL) [1] [µg/mL]	Kd [2] [nM]	Kd [3] [nM]	koff [3] [s⁻¹]	kon [3] [M⁻¹ s⁻¹]	EC50 [4] [µg/mL]	Kd [5] [nM]	binding result [6]	Kd [7] [nM]	Kd [8] [nM]	koff [8] [s⁻¹]	kon [8] [M⁻¹ s⁻¹]
B1	0.042	5.2	3.45	0.0038	1.1e+06	0.87	3.5					
B2		38.5						binds				
B3	0.158	17.7	64.7	0.011	170000	0.56	66					
B4	0.621	18.9	22.8	0.013	570000	0.46	22					
B5	0.12	8.3	5.14	0.0019	370000	0.99	5					
B6	0.198	11.3	6.25	0.001	160000	1.25	6.4					
B7	0.0415	0.31	0.13	0.00013	1e+06	0.4	0.13					
B8	0.0985	8.6	14.6	0.0086	590000	0.97	15					
B9	0.063					0.26			2.4	2.44	0.000809	331000
B10	1.12	101	126	0.039	310000	0.6	124					
B11	0.151	23	16.7	0.0095	570000	1.88	17					
